Results published in patent publication US20100068217A1.

Assays:
MPER WT peptide [1] = test: ELISA, antigen on the plate, 2F5 IgG titrated 2.6e-7 to 1e-1 ug/ul
[2] = target: gp41e-1KU2 (Thermus aquaticus (origin of the scaffold protein, Table 1)); test: as above
[3] = target: MPER Cyclized peptide (HIV-1 gp41 MPER-derived, synthetic); test: kinetics with 2F5 as analyte (Biacore per paragraph 255)
MPER WT peptide [4] = test: as above
[5] = target: gp41e-1KU2 (Thermus aquaticus (origin of the scaffold protein, Table 1)); test: as above
[6] = target: gp41e-1LGY (Rhizopus niveus (origin of the scaffold protein, Table 1)); test: as above
[7] = target: gp41e-2MAT (E. coli (origin of the scaffold protein, Table 1)); test: as above

2F5 antibody
EC50 (read off the curve) (MPER WT peptide [1]): 0.2 µg/mL
EC50 (read off the curve) [2]: 0.2 µg/mL
Kd [3]: 5.09 nM
koff [3]: 0.00269 s⁻¹
kon [3]: 528000 M⁻¹ s⁻¹
Kd (MPER WT peptide [4]): 6.45 nM
koff (MPER WT peptide [4]): 0.00356 s⁻¹
kon (MPER WT peptide [4]): 552000 M⁻¹ s⁻¹
Kd [5]: 2.63 nM
koff [5]: 0.00287 s⁻¹
kon [5]: 1.09e+06 M⁻¹ s⁻¹
Kd [6]: 10.7 nM
koff [6]: 0.00396 s⁻¹
kon [6]: 369000 M⁻¹ s⁻¹
Kd [7]: 9.35 nM
koff [7]: 0.000679 s⁻¹
kon [7]: 72600 M⁻¹ s⁻¹
